How the values were obtained:
[1] = molecular target: T1, GST-human NOGO-A56 (human); experiment: SPR (Biacore) off-rate on NOGO chip, panel of H6FL CDR H3 variants with L13FL
T1 construct: Expressed in E. coli BL21 from pGEX-6P1 and purified on glutathione-sepharose; the GST tag is part of the protein in the assays; also called GST-Nogo-A 5+6; GST Nogo-A 5 + 6

[2] = molecular target: T1, GST-human NOGO-A56; experiment: SPR (Biacore), GST-human NOGO-A56 amine-coupled to CM5, antibody flowed over, 25 C
Protocol: (§1) GST-human NOGO-A56 was immobilised to a CM5 chip by primary amine coupling using the Biacore Wizard program designed for targeted immobilisation levels. The CM5 sensor surface was activated by passing a solution of 50 mM N-hydroxy-succinimide (NHS) and 200 mM N-ethyl-N′-dimethylaminopropyl carbonide (EDC). Then GST-human NOGO-A56 in sodium acetate buffer, pH5.0 or pH 4.5, was passed over the chip and immobilised. After immobilisation was complete any still activated esters were blocked by an injection of 1M ethanolamine hydrochloride, pH8.5.
(§2) The anti-NOGO mAbs were diluted down in HBS-EP (10 mM HEPES, pH 7.4, 150 mM NaCl, 3 mM EDTA, and 0.005% P-20 surfactant) for the BIAcore 3000 or HBS-EP+ (10 mM HEPES, pH 7.4, 150 mM NaCl, 3 mM EDTA, and 0.05% P-20 surfactant) in the case of the T100 and binding studies were carried out at range of defined antibody concentrations. All runs were referenced against a blanked sensor surface (one that had been activated and blocked as described earlier but had no addition of ligand). Analysis of binding was carried out using the BIAevaluation kinetic analysis software version 4.1 for the BIAcore 3000 and T100 kinetic analysis software version 1.0. […] Unless otherwise stated, the BIAcore experiments were performed at 25° C.

[3] = molecular target: T1, GST-human NOGO-A56; experiment: SPR (Biacore), GST-human NOGO-A56 amine-coupled to CM5, antibody flowed over, 37 C
Protocol: as §1, §2

[4] = molecular target: T1, GST-human NOGO-A56; experiment: direct ELISA, GST-human NOGO-A56 coated at 1.0 mcg/ml, purified antibody, OD490
Protocol: Wells were rinsed once with TBS+0.05% Tween (TBST) then incubated with 2% BSA in TBST to block non-specific binding sites at room temperature for 1 hour. Antibodies were diluted in TBST+2% BSA to 10 μg/ml and ½ dilutions made from this. Antibodies were added to wells in duplicate and incubated at room temperature for 1 hour. […] The wells were washed three times with TBST and then incubated with 100 μl OPD peroxidase substrate (Sigma) per well for 10 minutes. The colour reaction was stopped by the addition of 25 μl concentrated H₂SO₄. Optical density at 490 nm was measured using a plate reader. Background values read from wells with no antibody were subtracted.

[5] = molecular target: T1, GST-human NOGO-A56; experiment: SPR (Biacore), GST-human NOGO-A56 amine-coupled to CM5, antibody flowed over, 25 C; remark: listed apart in the source
Protocol: as §1, §2

[6] = molecular target: T1, GST-human NOGO-A56; experiment: as above; remark: listed apart in the source
Protocol: as §1, §2

[7] = molecular target: T1, GST-human NOGO-A56; experiment: SPR (Biacore), NOGO amine-coupled to CM5, antibody flowed over
Protocol: as §1

T1 sequence (chain, as listed by the source limits assumed): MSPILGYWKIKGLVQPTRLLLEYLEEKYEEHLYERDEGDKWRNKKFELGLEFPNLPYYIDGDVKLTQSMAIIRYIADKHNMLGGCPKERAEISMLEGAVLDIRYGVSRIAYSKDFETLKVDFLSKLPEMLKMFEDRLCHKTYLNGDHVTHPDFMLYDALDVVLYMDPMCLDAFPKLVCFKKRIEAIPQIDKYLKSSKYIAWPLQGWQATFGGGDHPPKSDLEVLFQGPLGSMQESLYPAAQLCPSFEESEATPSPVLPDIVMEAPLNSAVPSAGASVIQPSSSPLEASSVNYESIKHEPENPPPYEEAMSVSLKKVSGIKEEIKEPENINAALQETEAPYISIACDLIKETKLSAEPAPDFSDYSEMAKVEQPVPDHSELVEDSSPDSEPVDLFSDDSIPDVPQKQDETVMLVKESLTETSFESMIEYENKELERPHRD

B1: H6L13 variant with VH CDR3 GQSY (antibody, human IgG1, kappa, V domains shown)
VH: QVQLVQSGAEVKKPGASVKVSCKASGYTFTSYWMHWVRQAPGQGLEWIGNINPSNGGTNYNEKFKSRATMTRDTSTSTAYMELSSLRSEDTAVYYCELGQSYWGQGTLVTVSS
VL: DIVMTQSPLSLPVTLGQPASISCRSSKSLLYKDGKTYLNWFQQRPGQSPQLLIYLMSTRASGVPDRFSGGGSGTDFTLKISRVEAEDVGVYYCQQLVEYPLTFGQGTKLEIKR
notes: Single point variant of H6FL with L13FL
In the case of B1, the koff [1] is reported as 0.0186 s⁻¹.

B2: H6L13 variant with VH CDR3 GQWY (antibody, human IgG1, kappa, V domains shown)
VH: QVQLVQSGAEVKKPGASVKVSCKASGYTFTSYWMHWVRQAPGQGLEWIGNINPSNGGTNYNEKFKSRATMTRDTSTSTAYMELSSLRSEDTAVYYCELGQWYWGQGTLVTVSS
VL: DIVMTQSPLSLPVTLGQPASISCRSSKSLLYKDGKTYLNWFQQRPGQSPQLLIYLMSTRASGVPDRFSGGGSGTDFTLKISRVEAEDVGVYYCQQLVEYPLTFGQGTKLEIKR
notes: as for B1
In the case of B2, the koff [1] is reported as 0.0177 s⁻¹.

B3: H6L13 variant with VH CDR3 GQYY (antibody, human IgG1, kappa, V domains shown)
VH: QVQLVQSGAEVKKPGASVKVSCKASGYTFTSYWMHWVRQAPGQGLEWIGNINPSNGGTNYNEKFKSRATMTRDTSTSTAYMELSSLRSEDTAVYYCELGQYYWGQGTLVTVSS
VL: DIVMTQSPLSLPVTLGQPASISCRSSKSLLYKDGKTYLNWFQQRPGQSPQLLIYLMSTRASGVPDRFSGGGSGTDFTLKISRVEAEDVGVYYCQQLVEYPLTFGQGTKLEIKR
notes: as for B1
For B3, the koff [1] was 0.0328 s⁻¹.

B4: H6L13 variant with VH CDR3 GSGY (antibody, human IgG1, kappa, V domains shown)
VH: QVQLVQSGAEVKKPGASVKVSCKASGYTFTSYWMHWVRQAPGQGLEWIGNINPSNGGTNYNEKFKSRATMTRDTSTSTAYMELSSLRSEDTAVYYCELGSGYWGQGTLVTVSS
VL: DIVMTQSPLSLPVTLGQPASISCRSSKSLLYKDGKTYLNWFQQRPGQSPQLLIYLMSTRASGVPDRFSGGGSGTDFTLKISRVEAEDVGVYYCQQLVEYPLTFGQGTKLEIKR
notes: as for B1
B4 showed a koff [1] of 0.0207 s⁻¹.

B5: H6L13 variant with VH CDR3 GVGY (antibody, human IgG1, kappa, V domains shown)
VH: QVQLVQSGAEVKKPGASVKVSCKASGYTFTSYWMHWVRQAPGQGLEWIGNINPSNGGTNYNEKFKSRATMTRDTSTSTAYMELSSLRSEDTAVYYCELGVGYWGQGTLVTVSS
VL: DIVMTQSPLSLPVTLGQPASISCRSSKSLLYKDGKTYLNWFQQRPGQSPQLLIYLMSTRASGVPDRFSGGGSGTDFTLKISRVEAEDVGVYYCQQLVEYPLTFGQGTKLEIKR
notes: as for B1
Binder B5 has a koff [1] of 0.0178 s⁻¹.

B6: H6L13 variant with VH CDR3 IQGY (antibody, human IgG1, kappa, V domains shown)
VH: QVQLVQSGAEVKKPGASVKVSCKASGYTFTSYWMHWVRQAPGQGLEWIGNINPSNGGTNYNEKFKSRATMTRDTSTSTAYMELSSLRSEDTAVYYCELIQGYWGQGTLVTVSS
VL: DIVMTQSPLSLPVTLGQPASISCRSSKSLLYKDGKTYLNWFQQRPGQSPQLLIYLMSTRASGVPDRFSGGGSGTDFTLKISRVEAEDVGVYYCQQLVEYPLTFGQGTKLEIKR
notes: as for B1
In the case of B6, the koff [1] is reported as 0.0172 s⁻¹.

B7: H6L13 variant with VH CDR3 RQGY (antibody, human IgG1, kappa, V domains shown)
VH: QVQLVQSGAEVKKPGASVKVSCKASGYTFTSYWMHWVRQAPGQGLEWIGNINPSNGGTNYNEKFKSRATMTRDTSTSTAYMELSSLRSEDTAVYYCELRQGYWGQGTLVTVSS
VL: DIVMTQSPLSLPVTLGQPASISCRSSKSLLYKDGKTYLNWFQQRPGQSPQLLIYLMSTRASGVPDRFSGGGSGTDFTLKISRVEAEDVGVYYCQQLVEYPLTFGQGTKLEIKR
notes: as for B1
B7 showed a koff [1] of 0.0175 s⁻¹.

B8: H16L16 (antibody, human IgG1, kappa, V domains shown)
VH: QVQLVQSGAEVKKPGASVKVSCKASGYTFTSYWMHWVKQRPGQGLEWIGNINPSNGGTNYNEKFKSKATLTVDKSTSTAYMELSSLRSEDTAVYYCELGQGYWGQGTLVTVSS
VL: DIVMTQSPLSNPVTLGQPVSISCRSSKSLLYKDGKTYLNWFLQRPGQSPQLLIYLMSTRASGVPDRFSGGGSGTDFTLKISRVEAEDVGVYYCQQLVEYPLTFGQGTKLEIKR
notes: IgG1 (L235A, G237A) / kappa; CAMPATH-1H signal (1-19) left out
Work on B8 yielded a Kd [2] of 1080 pM, a koff [2] of 0.00372 s⁻¹ and a kon [2] of 3.43e+06 M⁻¹ s⁻¹. The Kd [3] was 1160 pM, the koff [3] was 0.00616 s⁻¹ and the kon [3] was 5.31e+06 M⁻¹ s⁻¹. For the same binder, the “EC50 (read off the curve)” value [4] was about 0.08 µg/mL.

B9: H27L13 (antibody, human IgG1, kappa, V domains shown)
VH: QVQLVQSGAEVKKPGASVKVSCKASGYTFTSYWMHWVKQRPGQGLEWIGNINPSNGGTNYNEKFKSKATLTVDKSTSTAYMELSSLRSEDTAVYYCELMQGYWGQGTLVTVSS
VL: DIVMTQSPLSLPVTLGQPASISCRSSKSLLYKDGKTYLNWFQQRPGQSPQLLIYLMSTRASGVPDRFSGGGSGTDFTLKISRVEAEDVGVYYCQQLVEYPLTFGQGTKLEIKR
notes: as for B8
B9 gave a Kd [5] of 291 pM, a koff [5] of 0.0018 s⁻¹ and a kon [5] of 6.2e+06 M⁻¹ s⁻¹. The Kd [2] was 606 pM, the koff [2] was 0.00213 s⁻¹ and the kon [2] was 3.5e+06 M⁻¹ s⁻¹. It also gave a Kd [3] of 641 pM, a koff [3] of 0.00422 s⁻¹ and a kon [3] of 6.58e+06 M⁻¹ s⁻¹. The Kd [6] was 280 pM, the koff [6] was 0.00183 s⁻¹ and the kon [6] was 6.58e+06 M⁻¹ s⁻¹. The “EC50 (read off the curve)” value [4] was about 0.08 µg/mL.

B10: H100L100 (antibody, V domains shown)
VH: QVQLVQSGAEVKKPGASVKVSCKASGYTFTSYWMHWVRQAPGQGLEWIGNINPSNGGTNYNEKFKSRATMTRDTSTSTAYMELSSLRSEDTAVYYCELGQSYWGQGTLVTVSS
VL: DIVMTQSPLSLPVTLGQPASISCRSSKSLLYKDGKTYLNWFRQRPGQSPQLLIYLMSTRASGVPDRFSGGGSGTDFTLKISRVEAEDVGVYYCQQLVEYPLTFGQGTKLEIK
notes: Full length versions of the heavy and light chains were expressed in CHO cells; H100 is H6 VH with G101S (Kabat), L100 is L13 VL with Q37R (Kabat); also called G101S/Q37R variant
B10 was tested, and the Kd [7] was 396 pM, the koff [7] was 0.00507 s⁻¹ and the kon [7] was 1.28e+07 M⁻¹ s⁻¹.

From US20130287781A1 (GlaxoSmithKline, published 2013)
